Data published in PMC5606850, “Acidic C-terminal domains autoregulate the RNA chaperone Hfq” (eLife, 2017).

What was measured:
[1] = SDS-PAGE oligomerization of purified Hfq variants; format: physicochemical, E. coli; details: 4–20% SDS-PAGE, ~2.8 µg protein, 2% SDS, boiled
Description: (§1) Figure 2. CTD and RNA occupy the same rim binding site. […] The CTD linker is shown in purple, the acidic tip in red and the N-terminal FITC as a yellow star. Hfq core is shown in cyan, with basic rim patches in dark blue. […] (C) Reaction scheme for annealing an RNA molecular beacon to a target RNA (open bar) ([Hopkins et al., 2011]; [Panja et al., 2015]). (D) Progress curves for annealing 50 nM molecular beacon and 100 nM Target by 50 nM Hfq65 hexamer at 30°C, measured by stopped-flow fluorescence. See Figure 2—figure supplement 3 for further data. (E) Contribution of core residues to CTD binding. Interaction energy (Expected Energetic Contribution; EEC) in silico for a core residue in the Rosetta models (solid symbols and solid line; adjusted R^2 = 0.77) or the average annealing rates for Target and Target-A18 relative to Hfq65 (open symbols and dashed line; adjusted R^2 = 0.94) versus experimental CTD binding energy (∆∆G°) for each Hfq65 variant. The binding energy, ∆∆G° = –RTln(Kd^MUT/Kd), reflects the perturbation to CTD binding by a mutation in Hfq65. The interaction energy in silico or EEC is defined as the average energy of a tail–core interaction multiplied by the average number of tail–core interactions per model (Figure 1B, top and Equation 3). The relative annealing rate for Hfq65 variants, krel = kobs^MUT/kobs^WT, is <1 if the mutated residue is important for RNA annealing. Figure 2—figure supplement 1. SDS-PAGE of purified Hfq variants. WT Hfq assembles into hexamers and dodecamers that are stable to SDS-PAGE, which can be used to evaluate the oligomerization of Hfq variants. Purified Hfq protein (~2.8 µg) was separated on a 4–20% SDS-PAGE gel and stained with Coomassie blue (lanes 2–6). Samples were prepared in 2% SDS and boiled before loading. Lane 1, Protein standards (10 µL All Blue Precision Plus, NEB). […] Annealing of 100 nM Target RNA to 50 nM beacon RNA by Hfq65 and Hfq65 variants was measured by stopped flow fluorescence at 30°C in 1 × TNK buffer. […] The change in fluorescence emission intensity was normalized to the maximum fluorescence within an experiment. […]

[2] = system: RNA molecular beacon and Target RNA; test: RNA annealing kinetics (molecular beacon and Target RNAs), stopped-flow fluorescence; format: biochemical; details: 50 nM molecular beacon, 100 nM Target, Hfq65 variants, TNK buffer, 30 °C
Description: as §1, with “variants.” for “variants. WT Hfq assembles into hexamers and dodecamers that are stable to SDS-PAGE, which can be used to evaluate the oligomerization of Hfq variants. Purified Hfq protein (~2.8 µg) was separated on a 4–20% SDS-PAGE gel and stained with Coomassie blue (lanes 2–6). Samples were prepared in 2% SDS and boiled before loading. Lane 1, Protein standards (10 µL All Blue Precision Plus, NEB).”
To determine how much core residues that bind the CTD contribute to Hfq’s RNA annealing activity, we compared the effect of rim mutations on the rate of base pairing between an RNA molecular beacon and the 16 nt Target RNA by stopped-flow fluorescence spectroscopy (Figure 2C) ([Hopkins et al., 2011]). […]

[3] = target: Hfq65 (Hfq core, CTD deleted) (Escherichia coli, UniProt P0A6X3 1-65); test: competition; displaces CTD-FITC peptide; strong; IC50 only in figure; Anisotropy: 10 mM Tris-HCl pH 7.5, 50 mM NaCl, 50 mM KCl, 30 C; CTD-FITC competition: 50 mM Tris-HCl pH 7.5, 30 C; pUC19 EMSA: 40 mM Tris-HCl pH 7.5, 0.14 mM EDTA, 35 mM NH4Cl, 3.7% glycerol, 25 C (competition legend 30 C); details: protein: recombinant, tags: untagged, chain copies: 6
Hfq102 (wild-type Hfq) = Hfq102 (wild-type Hfq) (Escherichia coli, UniProt P0A6X3 1-102); test: competition; vs pUC19 EMSA; strongest, saturates at 1:1; Anisotropy: 10 mM Tris-HCl pH 7.5, 50 mM NaCl, 50 mM KCl, 30 C; CTD-FITC competition: 50 mM Tris-HCl pH 7.5, 30 C; pUC19 EMSA: 40 mM Tris-HCl pH 7.5, 0.14 mM EDTA, 35 mM NH4Cl, 3.7% glycerol, 25 C (competition legend 30 C); details: protein: recombinant, tags: untagged, chain copies: 6

For “Hfq102-R16A: rim mutation R16A of full-length Hfq (printed R16A in b39)”, the “oligomeric state on SDS-PAGE” value [1] was “only forms hexamer (blue dot) and monomer”.

For Hfq65-Q35A, the “observed annealing rate of Hfq65 rim mutants” value [2] was “relatively unaffected”.

B1: RprA sRNA (structured_RNA)
RNA: GGGACGGUUAUAAAUCAACAUAUUGAUUUAUAAGCAUGGAAAUCCCCUGAGUGAAACAACGAAUUGCUGUGUGUAGUCUUUGCCCAUCUCCCACGAUGGGCUUUUUUUU
B1: binds [3].

B2: DsrA sRNA (structured_RNA)
RNA: GGGAACACAUCAGAUUUCCUGGUGUAACGAAUUUUUUAAGUGCUUCUUGCUUAAGCAAGUUUCAUCCCGACCCCCUCAGGGUCGGGAUUUUUUU
B2: binds [3].

B3: ChiX sRNA (structured_RNA)
RNA: GGGACACCGUCGCUUAAAGUGACGGCAUAAUAAUAAAAAAAUGAAAUUCCUCUUUGACGGGCCAAUAGCGAUAUUGGCCAUUUUUUU
B3: binds (Hfq102 (wild-type Hfq); label: 32P in annealing EMSA); binds ([3]; label: 32P in annealing EMSA).

B4: RyhB sRNA (structured_RNA)
RNA: GGGCGAUCAGGAAGACCCUCGAGGAGAACCUGAAAGCACGACAUUGCUCACAUUGCUUCCAGUAUUACUUAGCCAGCCGGGUGCUGGCUUUUU
B4: binds (Hfq102 (wild-type Hfq)); binds [3].
